Patent US20210032299A1 (Eli Lilly, published 2021)
Starred links: 1 amine or outer side, 2 acyl side, 3 side chain; linkers in the order of their positions; H or OH if unused. Non-standard residues stand in square brackets, D forms with d. Groups on a side chain read outwards from the residue. No end group written: not given here. *: point of attachment. C20 diacid = O=C(O)CCCCCCCCCCCCCCCCCCC(=O)*; αMePhe(2-F) = C[C@](N)(Cc1ccccc1F)C(=O)O; γGlu = O=C(O)[C@H](CCC(=O)[*:2])N[*:1]; αMeF = C[C@](N)(Cc1ccccc1)C(=O)O; 4Pal = N[C@@H](Cc1ccncc1)C(=O)O; AEEA = NCCOCCOCC(=O)O; Aib = CC(C)(N)C(=O)O

T1: human glucose-dependent insulinotropic peptide receptor (human, UniProt P48546 22-466)
T1 sequence (looked up): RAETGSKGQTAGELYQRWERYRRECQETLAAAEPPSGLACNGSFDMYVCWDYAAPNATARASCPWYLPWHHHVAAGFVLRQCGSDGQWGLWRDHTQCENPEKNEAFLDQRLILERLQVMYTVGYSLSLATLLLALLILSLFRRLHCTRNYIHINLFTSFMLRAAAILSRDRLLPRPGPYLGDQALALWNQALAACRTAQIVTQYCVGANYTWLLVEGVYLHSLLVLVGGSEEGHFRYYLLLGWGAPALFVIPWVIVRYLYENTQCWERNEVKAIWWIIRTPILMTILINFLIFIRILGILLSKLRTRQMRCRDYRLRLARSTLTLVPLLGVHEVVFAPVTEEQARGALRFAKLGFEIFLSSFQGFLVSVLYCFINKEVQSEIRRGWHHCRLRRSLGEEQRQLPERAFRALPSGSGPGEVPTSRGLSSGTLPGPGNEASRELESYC

B1: Example 40 (peptide)
peptide: Y[Aib]EGT[αMePhe(2-F)]ISDYSIALDKK([AEEA-AEEA-γGlu-C20 diacid])HQ[Aib]DFVEWLLETGPSSGAPPPS-NH2
modifications: N-terminus assumed
SMILES: CC[C@H](C)[C@H](NC(=O)[C@H](CO)NC(=O)[C@H](Cc1ccc(O)cc1)NC(=O)[C@H](CC(=O)O)NC(=O)[C@H](CO)NC(=O)[C@@H](NC(=O)[C@](C)(Cc1ccccc1F)NC(=O)[C@@H](NC(=O)CNC(=O)[C@H](CCC(=O)O)NC(=O)C(C)(C)NC(=O)[C@@H](N)Cc1ccc(O)cc1)[C@@H](C)O)[C@@H](C)CC)C(=O)N[C@@H](C)C(=O)N[C@@H](CC(C)C)C(=O)N[C@@H](CC(=O)O)C(=O)N[C@@H](CCCCN)C(=O)N[C@@H](CCCCNC(=O)COCCOCCNC(=O)COCCOCCNC(=O)CC[C@H](NC(=O)CCCCCCCCCCCCCCCCCCC(=O)O)C(=O)O)C(=O)N[C@@H](Cc1c[nH]cn1)C(=O)N[C@@H](CCC(N)=O)C(=O)NC(C)(C)C(=O)N[C@@H](CC(=O)O)C(=O)N[C@@H](Cc1ccccc1)C(=O)N[C@H](C(=O)N[C@@H](CCC(=O)O)C(=O)N[C@@H](Cc1c[nH]c2ccccc12)C(=O)N[C@@H](CC(C)C)C(=O)N[C@@H](CC(C)C)C(=O)N[C@@H](CCC(=O)O)C(=O)N[C@H](C(=O)NCC(=O)N1CCC[C@H]1C(=O)N[C@@H](CO)C(=O)N[C@@H](CO)C(=O)NCC(=O)N[C@@H](C)C(=O)N1CCC[C@H]1C(=O)N1CCC[C@H]1C(=O)N1CCC[C@H]1C(=O)N[C@@H](CO)C(N)=O)[C@@H](C)O)C(C)C
B2: Example 41 (peptide)
peptide: Y[Aib]EGT[αMeF]ISDYSIALDKK([AEEA-AEEA-γGlu-C20 diacid])HQ[Aib]DFVE[4Pal]LLETGPSSGAPPPS-NH2
modifications: N-terminus assumed
SMILES: CC[C@H](C)[C@H](NC(=O)[C@H](CO)NC(=O)[C@H](Cc1ccc(O)cc1)NC(=O)[C@H](CC(=O)O)NC(=O)[C@H](CO)NC(=O)[C@@H](NC(=O)[C@](C)(Cc1ccccc1)NC(=O)[C@@H](NC(=O)CNC(=O)[C@H](CCC(=O)O)NC(=O)C(C)(C)NC(=O)[C@@H](N)Cc1ccc(O)cc1)[C@@H](C)O)[C@@H](C)CC)C(=O)N[C@@H](C)C(=O)N[C@@H](CC(C)C)C(=O)N[C@@H](CC(=O)O)C(=O)N[C@@H](CCCCN)C(=O)N[C@@H](CCCCNC(=O)COCCOCCNC(=O)COCCOCCNC(=O)CC[C@H](NC(=O)CCCCCCCCCCCCCCCCCCC(=O)O)C(=O)O)C(=O)N[C@@H](Cc1c[nH]cn1)C(=O)N[C@@H](CCC(N)=O)C(=O)NC(C)(C)C(=O)N[C@@H](CC(=O)O)C(=O)N[C@@H](Cc1ccccc1)C(=O)N[C@H](C(=O)N[C@@H](CCC(=O)O)C(=O)N[C@@H](Cc1ccncc1)C(=O)N[C@@H](CC(C)C)C(=O)N[C@@H](CC(C)C)C(=O)N[C@@H](CCC(=O)O)C(=O)N[C@H](C(=O)NCC(=O)N1CCC[C@H]1C(=O)N[C@@H](CO)C(=O)N[C@@H](CO)C(=O)NCC(=O)N[C@@H](C)C(=O)N1CCC[C@H]1C(=O)N1CCC[C@H]1C(=O)N1CCC[C@H]1C(=O)N[C@@H](CO)C(N)=O)[C@@H](C)O)C(C)C
B3: Example 42 (peptide)
peptide: Y[Aib]EGT[αMeF]ISDYSIALDKK([AEEA-AEEA-γGlu-C20 diacid])HQ[Aib]DFVE[4Pal]LLEQGPSSGAPPPS-NH2
modifications: N-terminus assumed
SMILES: CC[C@H](C)[C@H](NC(=O)[C@H](CO)NC(=O)[C@H](Cc1ccc(O)cc1)NC(=O)[C@H](CC(=O)O)NC(=O)[C@H](CO)NC(=O)[C@@H](NC(=O)[C@](C)(Cc1ccccc1)NC(=O)[C@@H](NC(=O)CNC(=O)[C@H](CCC(=O)O)NC(=O)C(C)(C)NC(=O)[C@@H](N)Cc1ccc(O)cc1)[C@@H](C)O)[C@@H](C)CC)C(=O)N[C@@H](C)C(=O)N[C@@H](CC(C)C)C(=O)N[C@@H](CC(=O)O)C(=O)N[C@@H](CCCCN)C(=O)N[C@@H](CCCCNC(=O)COCCOCCNC(=O)COCCOCCNC(=O)CC[C@H](NC(=O)CCCCCCCCCCCCCCCCCCC(=O)O)C(=O)O)C(=O)N[C@@H](Cc1c[nH]cn1)C(=O)N[C@@H](CCC(N)=O)C(=O)NC(C)(C)C(=O)N[C@@H](CC(=O)O)C(=O)N[C@@H](Cc1ccccc1)C(=O)N[C@H](C(=O)N[C@@H](CCC(=O)O)C(=O)N[C@@H](Cc1ccncc1)C(=O)N[C@@H](CC(C)C)C(=O)N[C@@H](CC(C)C)C(=O)N[C@@H](CCC(=O)O)C(=O)N[C@@H](CCC(N)=O)C(=O)NCC(=O)N1CCC[C@H]1C(=O)N[C@@H](CO)C(=O)N[C@@H](CO)C(=O)NCC(=O)N[C@@H](C)C(=O)N1CCC[C@H]1C(=O)N1CCC[C@H]1C(=O)N1CCC[C@H]1C(=O)N[C@@H](CO)C(N)=O)C(C)C
B4: Example 37 (peptide)
peptide: Y[Aib]EGT[αMePhe(2-F)]ISDYSIALDKK([AEEA-AEEA-γGlu-C20 diacid])HQ[Aib]DFVEYLLEGGPSSGAPPPS-NH2
modifications: N-terminus assumed
SMILES: CC[C@H](C)[C@H](NC(=O)[C@H](CO)NC(=O)[C@H](Cc1ccc(O)cc1)NC(=O)[C@H](CC(=O)O)NC(=O)[C@H](CO)NC(=O)[C@@H](NC(=O)[C@](C)(Cc1ccccc1F)NC(=O)[C@@H](NC(=O)CNC(=O)[C@H](CCC(=O)O)NC(=O)C(C)(C)NC(=O)[C@@H](N)Cc1ccc(O)cc1)[C@@H](C)O)[C@@H](C)CC)C(=O)N[C@@H](C)C(=O)N[C@@H](CC(C)C)C(=O)N[C@@H](CC(=O)O)C(=O)N[C@@H](CCCCN)C(=O)N[C@@H](CCCCNC(=O)COCCOCCNC(=O)COCCOCCNC(=O)CC[C@H](NC(=O)CCCCCCCCCCCCCCCCCCC(=O)O)C(=O)O)C(=O)N[C@@H](Cc1c[nH]cn1)C(=O)N[C@@H](CCC(N)=O)C(=O)NC(C)(C)C(=O)N[C@@H](CC(=O)O)C(=O)N[C@@H](Cc1ccccc1)C(=O)N[C@H](C(=O)N[C@@H](CCC(=O)O)C(=O)N[C@@H](Cc1ccc(O)cc1)C(=O)N[C@@H](CC(C)C)C(=O)N[C@@H](CC(C)C)C(=O)N[C@@H](CCC(=O)O)C(=O)NCC(=O)NCC(=O)N1CCC[C@H]1C(=O)N[C@@H](CO)C(=O)N[C@@H](CO)C(=O)NCC(=O)N[C@@H](C)C(=O)N1CCC[C@H]1C(=O)N1CCC[C@H]1C(=O)N1CCC[C@H]1C(=O)N[C@@H](CO)C(N)=O)C(C)C
B5: Example 39 (peptide)
peptide: Y[Aib]EGT[αMePhe(2-F)]ISDYSIALDKK([AEEA-AEEA-γGlu-C20 diacid])HQ[Aib]DFVE[4Pal]LLEGGPSSGAPPPS-NH2
modifications: N-terminus assumed
SMILES: CC[C@H](C)[C@H](NC(=O)[C@H](CO)NC(=O)[C@H](Cc1ccc(O)cc1)NC(=O)[C@H](CC(=O)O)NC(=O)[C@H](CO)NC(=O)[C@@H](NC(=O)[C@](C)(Cc1ccccc1F)NC(=O)[C@@H](NC(=O)CNC(=O)[C@H](CCC(=O)O)NC(=O)C(C)(C)NC(=O)[C@@H](N)Cc1ccc(O)cc1)[C@@H](C)O)[C@@H](C)CC)C(=O)N[C@@H](C)C(=O)N[C@@H](CC(C)C)C(=O)N[C@@H](CC(=O)O)C(=O)N[C@@H](CCCCN)C(=O)N[C@@H](CCCCNC(=O)COCCOCCNC(=O)COCCOCCNC(=O)CC[C@H](NC(=O)CCCCCCCCCCCCCCCCCCC(=O)O)C(=O)O)C(=O)N[C@@H](Cc1c[nH]cn1)C(=O)N[C@@H](CCC(N)=O)C(=O)NC(C)(C)C(=O)N[C@@H](CC(=O)O)C(=O)N[C@@H](Cc1ccccc1)C(=O)N[C@H](C(=O)N[C@@H](CCC(=O)O)C(=O)N[C@@H](Cc1ccncc1)C(=O)N[C@@H](CC(C)C)C(=O)N[C@@H](CC(C)C)C(=O)N[C@@H](CCC(=O)O)C(=O)NCC(=O)NCC(=O)N1CCC[C@H]1C(=O)N[C@@H](CO)C(=O)N[C@@H](CO)C(=O)NCC(=O)N[C@@H](C)C(=O)N1CCC[C@H]1C(=O)N1CCC[C@H]1C(=O)N1CCC[C@H]1C(=O)N[C@@H](CO)C(N)=O)C(C)C
B6: Example 38 (peptide)
peptide: Y[Aib]EGT[αMePhe(2-F)]ISDYSIALDKK([AEEA-AEEA-γGlu-C20 diacid])HQ[Aib]DFVE[4Pal]LLETGPSSGAPPPS-NH2
modifications: N-terminus assumed
SMILES: CC[C@H](C)[C@H](NC(=O)[C@H](CO)NC(=O)[C@H](Cc1ccc(O)cc1)NC(=O)[C@H](CC(=O)O)NC(=O)[C@H](CO)NC(=O)[C@@H](NC(=O)[C@](C)(Cc1ccccc1F)NC(=O)[C@@H](NC(=O)CNC(=O)[C@H](CCC(=O)O)NC(=O)C(C)(C)NC(=O)[C@@H](N)Cc1ccc(O)cc1)[C@@H](C)O)[C@@H](C)CC)C(=O)N[C@@H](C)C(=O)N[C@@H](CC(C)C)C(=O)N[C@@H](CC(=O)O)C(=O)N[C@@H](CCCCN)C(=O)N[C@@H](CCCCNC(=O)COCCOCCNC(=O)COCCOCCNC(=O)CC[C@H](NC(=O)CCCCCCCCCCCCCCCCCCC(=O)O)C(=O)O)C(=O)N[C@@H](Cc1c[nH]cn1)C(=O)N[C@@H](CCC(N)=O)C(=O)NC(C)(C)C(=O)N[C@@H](CC(=O)O)C(=O)N[C@@H](Cc1ccccc1)C(=O)N[C@H](C(=O)N[C@@H](CCC(=O)O)C(=O)N[C@@H](Cc1ccncc1)C(=O)N[C@@H](CC(C)C)C(=O)N[C@@H](CC(C)C)C(=O)N[C@@H](CCC(=O)O)C(=O)N[C@H](C(=O)NCC(=O)N1CCC[C@H]1C(=O)N[C@@H](CO)C(=O)N[C@@H](CO)C(=O)NCC(=O)N[C@@H](C)C(=O)N1CCC[C@H]1C(=O)N1CCC[C@H]1C(=O)N1CCC[C@H]1C(=O)N[C@@H](CO)C(N)=O)[C@@H](C)O)C(C)C

target: T1, human glucose-dependent insulinotropic …; assay: cell-based or functional assay

| Binder | hGIPR cAMP Rel EC50 [nM] |
| --- | --- |
| B1 | 0.033 |
| B2 | 0.0281 |
| B3 | 0.0091 |
| B4 | 0.036 |
| B5 | 0.0112 |
| B6 | 0.0368 |

target: human glucagon receptor (human, UniProt P47871 26-477); assay: cell-based or functional assay
Sequence (P47871 26-477): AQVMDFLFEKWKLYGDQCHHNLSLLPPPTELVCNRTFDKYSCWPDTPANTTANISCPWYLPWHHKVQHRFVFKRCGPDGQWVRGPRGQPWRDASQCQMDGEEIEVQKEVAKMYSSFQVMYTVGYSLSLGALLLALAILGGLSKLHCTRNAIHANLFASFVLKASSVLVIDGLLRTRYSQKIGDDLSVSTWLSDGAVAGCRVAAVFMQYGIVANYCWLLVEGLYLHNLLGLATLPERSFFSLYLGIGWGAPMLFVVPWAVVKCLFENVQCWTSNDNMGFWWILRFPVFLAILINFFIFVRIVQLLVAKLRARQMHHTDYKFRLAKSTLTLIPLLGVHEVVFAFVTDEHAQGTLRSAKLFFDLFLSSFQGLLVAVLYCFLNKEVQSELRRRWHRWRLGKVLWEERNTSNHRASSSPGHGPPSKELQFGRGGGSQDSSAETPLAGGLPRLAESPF

| Binder | hGcgR cAMP Rel EC50 [nM] |
| --- | --- |
| B1 | > 5000 |
| B2 | > 5000 |
| B3 | > 5000 |
| B4 | > 5000 |
| B5 | > 5000 |
| B6 | > 5000 |

target: human GLP-1 receptor (human, UniProt P43220 24-463); assay: cell-based or functional assay

| Binder | hGLP1R cAMP Rel EC50 [nM] |
| --- | --- |
| B1 | 2330 |
| B2 | 1800 |
| B3 | 815 |
| B4 | 61.1 |
| B5 | 3330 |
| B6 | 1390 |
